Test results published in patent EP2135619A1.

Target: human CC-chemokine receptor 2 (CCR2), endogenous on THP-1 cells, PBMC and whole blood cells (human) (UniProt P41597)
Experiment: cell-based or functional assay

UniProt P41597, sequence (P41597 whole entry): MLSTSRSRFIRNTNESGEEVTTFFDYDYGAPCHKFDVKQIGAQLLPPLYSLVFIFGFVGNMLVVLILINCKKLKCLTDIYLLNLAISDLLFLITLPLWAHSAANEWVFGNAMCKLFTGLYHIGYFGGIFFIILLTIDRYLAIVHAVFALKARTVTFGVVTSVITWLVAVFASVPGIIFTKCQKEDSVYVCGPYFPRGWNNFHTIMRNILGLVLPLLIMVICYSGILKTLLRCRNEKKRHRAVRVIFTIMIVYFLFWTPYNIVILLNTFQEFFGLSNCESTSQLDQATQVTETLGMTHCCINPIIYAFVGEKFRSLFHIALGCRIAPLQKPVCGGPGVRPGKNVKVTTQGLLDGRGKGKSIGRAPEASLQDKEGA

MCP-1-induced chemotaxis of fresh PBMC: 10 µg/mL
Substance: murine monoclonal antibody LS132.1D9
